Data on 11 molecules can be found in patent US5945329A, “Customized proteases” (Carlsberg A/S, priority 1997, dated 1999).

For data set [1], the target named is T1, yeast carboxypeptidase Y (CPD-Y), wild type (SEQ ID NO:32) (Saccharomyces cerevisiae, UniProt P00729).
T1 construct: purchased Carlbiotech, Copenhagen, Denmark
T1 sequence (P00729 112-532): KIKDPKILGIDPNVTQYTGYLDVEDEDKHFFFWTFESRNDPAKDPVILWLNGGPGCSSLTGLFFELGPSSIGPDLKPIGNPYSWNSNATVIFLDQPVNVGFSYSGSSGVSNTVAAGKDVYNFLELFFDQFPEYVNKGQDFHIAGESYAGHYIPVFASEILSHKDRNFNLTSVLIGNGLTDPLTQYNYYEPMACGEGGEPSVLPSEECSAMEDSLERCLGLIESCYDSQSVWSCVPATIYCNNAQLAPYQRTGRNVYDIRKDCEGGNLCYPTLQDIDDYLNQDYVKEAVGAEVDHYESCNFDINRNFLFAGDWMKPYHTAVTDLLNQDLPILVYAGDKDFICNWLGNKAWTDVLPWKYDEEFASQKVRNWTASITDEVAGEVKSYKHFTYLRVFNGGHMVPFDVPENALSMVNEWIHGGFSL
In words: Aminolysis of ester/peptide substrates; KN(app) of nucleophile. Format: biochemical. The conditions noted are these: for Kn,app (H-Val-NH2 as nucleophile): Table VI, substance of the line is the substrate (leaving group varied); for Kn,app: Table V, FA-Ala-OBzl as substrate. The procedure:
(§1) Aminolysis reactions were carried out in the following way. The nucleophile was dissolved in 50 mM Hepes, 5 mM EDTA and pH was adjusted to 7.5. Five (5) μl of substrate (8 mM FA-Ala-OBzl in methanol) was added to 190 μl nucleophile solution followed by 5 μl enzyme, resulting in a substrate concentration of 0.2 mM. For reactions carried out at pH 9.5, Hepes was replaced with Ches. During the reaction, 20 μl aliquots were removed from the reaction mixture and added to 50 μl 1% trifluoroacetic acid to quench the reaction. The reactant composition was determined by HPLC using a Waters HPLC equipped with a C-18 Waters Novapac 4μ reverse phase column and various gradients of acetonitrile in 0.1% trifluoroacetic acid. The separation was monitored at 302 nm allowing the direct quantification of the products from the integrated peak areas. The composition of the reaction mixture was determined at least twice during the reaction, the first time when 20-50% (preferably 35%) of the ester substrate had been consumed in the reaction and the second time when 50-90% (preferably 80%) of the substrate had been consumed. The products were collected and identified by amino acid analysis after acid hydrolysis using a Pharmacia Alpha Plus analyzer.
(§2) Further identification was obtained by co-chromatography of authentic standard compounds. The fraction of aminolysis (fa) was expressed as the ratio between the formed aminolysis product and the sum of all products being formed, i.e., unconsumed substrate was disregarded in the calculations. The KN(app), representing the nucleophile concentration at which fa is half the maximum value (a measure for the dissociation constant of the nucleophile), and famax (the highest possible fa obtained at saturation of the enzyme with nucleophile) were determined by fitting the values of fa obtained at a minimum of seven concentrations of nucleophile to a saturation. The value of fa obtained at the highest possible nucleophile concentration is designated fasat.
(§3) Aminolysis reactions were carried out in the following way. The nucleophile was dissolved in 50 mM HEPES, 5 mM EDTA and pH was adjusted to 7.5, 5 μl substrate (8 mM FA-Ala-OBzl or FA-Ala-Xaa-OH in methanol) was added to 190 μl nucleophile solution followed by 5 μl enzyme diluted in buffer to the appropriate concentration, resulting in a substrate concentration of 0.2 mM. During the reaction, 20 μl aliquots were removed from the reaction mixture and added to 50 μl 1% trifluoroacetic acid to quench the reaction. The reactant composition was determined by HPLC using a Waters HPLC equipped with a C-18 Waters Novapac 4μ reverse phase column and various gradients of acetonitrile in 0.1% trifluoroacetic acid. The separation was monitored at 302 nm allowing the direct quantification of the products from the integrated peak areas. The products were collected and identified by amino acid analysis after acid hydrolysis (Pharmacia Alpha Plus analyzer) and by co-chromatography of authentic standards. The fraction of aminolysis (fa) was expressed as the ratio between the formed aminolysis product and the sum of all products being formed, i.e. unconsumed substrate was disregarded in the calculations. The KN,app (a measure for the dissociation constant of the nucleophile) and famax (the highest possible fa obtained at saturation with nucleophile were determined by fitting the obtained fa values to the equation fa=famax /(1+KN,app /N).

Data set [2] addresses T2, carboxypeptidase Y (CPD-Y) variant N51Q (Asn51 replaced with glutamine) (Saccharomyces cerevisiae, UniProt P00729, N162Q).
T2 construct: made in house; host or cells: S. cerevisiae W2579 (secreted)
T2 sequence (P00729 112-532 N162Q): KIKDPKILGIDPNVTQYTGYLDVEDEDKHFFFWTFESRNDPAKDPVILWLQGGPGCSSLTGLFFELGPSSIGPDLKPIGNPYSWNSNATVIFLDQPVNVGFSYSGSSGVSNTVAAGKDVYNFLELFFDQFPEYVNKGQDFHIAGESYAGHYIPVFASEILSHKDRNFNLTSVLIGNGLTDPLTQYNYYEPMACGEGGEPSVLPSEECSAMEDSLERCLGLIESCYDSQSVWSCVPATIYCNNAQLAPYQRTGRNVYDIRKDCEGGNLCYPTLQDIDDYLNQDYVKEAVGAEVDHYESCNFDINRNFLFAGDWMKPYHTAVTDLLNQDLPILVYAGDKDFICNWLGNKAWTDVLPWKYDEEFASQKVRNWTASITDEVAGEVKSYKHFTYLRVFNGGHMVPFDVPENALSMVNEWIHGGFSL
In words: Aminolysis; KN(app) of nucleophile. In kind it is biochemical, yeast. The conditions noted are these: for Kn,app (H-Val-NH2 as nucleophile): Table VI, substance of the line is the substrate (leaving group varied); for Kn,app (H-Val-NH2 as nucleophile) / Kn,app: pH 7.5; for KN(app): Table III (unit as in Tables I, II), ester substrate; for KN(app) / Kn,app: amino acid nucleophile; for Kn,app: Table V, FA-Ala-OBzl as substrate. On the procedure: as §1, §2, §3

In data set [3] the target is T3, carboxypeptidase Y (CPD-Y) variant E145A (Glu145 replaced by alanine) (Saccharomyces cerevisiae, UniProt P00729, E256A).
T3 construct: made in house; host or cells: S. cerevisiae W2579 (secreted)
T3 sequence (P00729 112-532 E256A): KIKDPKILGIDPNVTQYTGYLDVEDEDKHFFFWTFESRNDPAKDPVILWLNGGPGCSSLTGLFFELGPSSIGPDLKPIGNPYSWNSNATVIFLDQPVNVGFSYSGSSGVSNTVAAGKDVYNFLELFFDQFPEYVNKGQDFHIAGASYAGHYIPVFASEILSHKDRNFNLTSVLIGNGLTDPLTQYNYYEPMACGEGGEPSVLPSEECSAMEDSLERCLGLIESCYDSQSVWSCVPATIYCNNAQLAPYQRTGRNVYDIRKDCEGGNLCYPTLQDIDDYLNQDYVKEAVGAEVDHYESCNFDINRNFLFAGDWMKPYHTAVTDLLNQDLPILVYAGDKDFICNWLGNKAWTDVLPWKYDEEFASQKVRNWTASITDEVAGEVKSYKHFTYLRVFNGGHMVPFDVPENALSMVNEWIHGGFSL
Nature of the data set: Aminolysis; KN(app) of nucleophile. In kind it is biochemical, yeast. The following applies: pH 7.5; for Kn,app (H-Val-NH2 as nucleophile): Table VI, substance of the line is the substrate (leaving group varied); for Kn,app: Table V, amino acid nucleophile, FA-Ala-OBzl as substrate. The procedure: as §1, §2, §3

The target in data set [4] is T4, carboxypeptidase Y (CPD-Y) variant E65A (Glu65 replaced by alanine) (Saccharomyces cerevisiae, UniProt P00729, E176A).
T4 construct: made in house; host or cells: S. cerevisiae W2579 (secreted)
T4 sequence (P00729 112-532 E176A): as the sequence (P00729 112-532 E256A) above, with E65A, A145E counted along it
Nature of the data set: Aminolysis; KN(app) of nucleophile. In kind it is biochemical, yeast. The following applies: pH 7.5; for Kn,app (H-Val-NH2 as nucleophile): Table VI, substance of the line is the substrate (leaving group varied). On the procedure: as §1, §2, §3

Substrate in data set [5]: CC(C)[C@H](NC(=O)[C@H](Cc1ccccc1)NC(=O)C=Cc1ccco1)C(=O)O
Nature of the data set: Hydrolysis of FA-Phe-Val-OH. Format: biochemical, yeast. The following applies: other: hydrolysis of FA-Phe-Val-OH.

[6] abbreviates: Table II, amino acid nucleophile, substrate FA-Ala-OBzl, pH 7.5.
The mark [7] stands for this setting: Table III (unit as in Tables I, II), amino acid nucleophile, ester substrate.

Consider `C[C@H](NC(=O)C=Cc1ccco1)C(=O)N[C@@H](Cc1ccccc1)C(=O)O` [FA--Ala--Phe--OH, FA-Ala-Phe-OH], for which the “Kn,app (H-Val-NH2 as nucleophile)” value in [1] (pH 7.5) is 1.1 ± 0.1 mM; in [2] it was 3.1 ± 0.1 mM; in data set [3], 4.1 ± 0.1 mM; in data set [4], 4.7 ± 0.1 mM.
Turning to `CC(C)[C@H](N)C(=O)O` [H--Val--OH, H-Val-OH], the “KN(app)” value in [1] (Table I, amino acid nucleophile, substrate FA-Ala-OBzl 0.2 mM, pH 7.5) is on record as 13 ± 1 mM; in data set [1] (setting [6]) it was 13 ± 1 mM; in data set [1] (setting [7]), 13 ± 1 mM; in [1] (nucleophile with substrate FA-Ala-OBzl, pH 7.5), 13 mM; in [2], 61 ± 3 mM. Moreover, the “Kn,app” value in data set [1] (amino acid nucleophile, pH 7.5) is 13 ± 1 mM; in data set [2] it was 61 ± 2 mM; in [3] it was 79 ± 6 mM; in data set [4] (Table V, amino acid nucleophile, FA-Ala-OBzl as substrate) it was 69 ± 2 mM.
Take “carboxypeptidase Y mutant E145A (enzyme)”: the famax of transpeptidation (nucleophile H-Val-NH2) stood at 0.8 with FA-Ala-Val-OH, 0.49 in the data set with FA-Ala-Phe-OH and 0.65 in the data set with FA-Ala-Leu-OH.
As to “carboxypeptidase Y mutant 178Ser (enzyme)”, the estimated CPD-Y activity relative to wild type transformants (fold of wild type) is 1.8 with CBZ-Pro-Leu-OH, 1.1 with CBZ-His-Leu-OH, 1.1 with CBZ-Gly-Leu-OH and 1.2 in the data set with CBZ-Trp-Leu-OH. The kcat/Km of hydrolysis worked out at 100000 M⁻¹ s⁻¹ in the data set with CBZ-Ser-Leu-OH; 3.33e+06 M⁻¹ s⁻¹ with CBZ-Phe-Leu-OH; 61700 M⁻¹ s⁻¹ with CBZ-Lys-Leu-OH; 12000 M⁻¹ s⁻¹ in the data set with CBZ-Glu-Leu-OH; 80000 M⁻¹ s⁻¹ with CBZ-Ala-Leu-OH.
With `CC(C)C[C@H](NC(=O)[C@H](C)NC(=O)C=Cc1ccco1)C(=O)O` [FA--Ala--Leu--OH, FA-Ala-Leu-OH], the “Kn,app (H-Val-NH2 as nucleophile)” value in data set [1] (pH 7.5) is given as 1.6 ± 0.1 mM; in data set [2] it was 2.4 ± 0.1 mM; in data set [3] it was 4.1 ± 0.1 mM; in [4], 5.2 ± 0.1 mM.
As to carboxypeptidase Y mutant E65A (enzyme), the famax of transpeptidation (nucleophile H-Val-NH2) was 0.67 with FA-Ala-Val-OH, 0.96 with FA-Ala-Ala-OH, 0.66 with FA-Ala-Phe-OH and 0.71 with FA-Ala-Leu-OH.
Consider `CC(C)C[C@H](N)C(=O)O` [H--Leu--OH, H-Leu-OH], for which the “KN(app)” value in [1] (setting [6]) was 10 ± 0.8 mM; in data set [1] (setting [7]) it was 10 ± 1 mM; in data set [2] it was 42 ± 1 mM. Moreover, the “Kn,app” value in data set [1] (amino acid nucleophile, pH 7.5) amounted to 10 ± 1 mM; in data set [2], 42 ± 1 mM; in [3] it was 40 ± 2 mM.
carboxypeptidase Y mutant N51S (enzyme): the famax of transpeptidation (nucleophile H-Val-NH2) in the data set with FA-Ala-Val-OH was 0.13; with FA-Ala-Ala-OH it was 0.88. Also, in the data set with FA-Phe-Val-OH, the kcat/KM of hydrolysis was 800000 M⁻¹ s⁻¹.
Regarding “carboxypeptidase Y mutant 178Ser/215Ala/216Pro (enzyme)”, the estimated CPD-Y activity relative to wild type transformants (fold of wild type) with CBZ-Pro-Leu-OH is 2.8; with CBZ-His-Leu-OH, 0.9; in the data set with CBZ-Gly-Leu-OH it was 0.6; in the data set with CBZ-Trp-Leu-OH, 1.9. Further, the kcat/Km of hydrolysis is 50000 M⁻¹ s⁻¹ with CBZ-Ser-Leu-OH; 1.83e+06 M⁻¹ s⁻¹ with CBZ-Phe-Leu-OH; 36700 M⁻¹ s⁻¹ in the data set with CBZ-Lys-Leu-OH; 8330 M⁻¹ s⁻¹ with CBZ-Glu-Leu-OH; 40000 M⁻¹ s⁻¹ with CBZ-Ala-Leu-OH.

B1: carboxypeptidase Y (CPD-Y) variant N51Q (Asn51 replaced with glutamine) (Saccharomyces cerevisiae S288C; N162Q) (protein)
chain: KIKDPKILGIDPNVTQYTGYLDVEDEDKHFFFWTFESRNDPAKDPVILWLQGGPGCSSLTGLFFELGPSSIGPDLKPIGNPYSWNSNATVIFLDQPVNVGFSYSGSSGVSNTVAAGKDVYNFLELFFDQFPEYVNKGQDFHIAGESYAGHYIPVFASEILSHKDRNFNLTSVLIGNGLTDPLTQYNYYEPMACGEGGEPSVLPSEECSAMEDSLERCLGLIESCYDSQSVWSCVPATIYCNNAQLAPYQRTGRNVYDIRKDCEGGNLCYPTLQDIDDYLNQDYVKEAVGAEVDHYESCNFDINRNFLFAGDWMKPYHTAVTDLLNQDLPILVYAGDKDFICNWLGNKAWTDVLPWKYDEEFASQKVRNWTASITDEVAGEVKSYKHFTYLRVFNGGHMVPFDVPENALSMVNEWIHGGFSL
notes: made in house; host or cells: S. cerevisiae W2579 (secreted)
Broadly, the Km is the substrate concentration at which the rate is half of its maximum. By kcat is commonly meant the maximal rate divided by the concentration of active sites. One may read the kcat/Km as the turnover number divided by the Michaelis constant. B1: in [5], the Km was 85 µM, the catalytic constant (kcat) was 25 s⁻¹ and the kcat/Km amounted to 300000 M⁻¹ s⁻¹.

B2: carboxypeptidase Y (CPD-Y) variant N51S (Asn51 replaced with serine) (Saccharomyces cerevisiae S288C; N162S) (protein)
chain: KIKDPKILGIDPNVTQYTGYLDVEDEDKHFFFWTFESRNDPAKDPVILWLSGGPGCSSLTGLFFELGPSSIGPDLKPIGNPYSWNSNATVIFLDQPVNVGFSYSGSSGVSNTVAAGKDVYNFLELFFDQFPEYVNKGQDFHIAGESYAGHYIPVFASEILSHKDRNFNLTSVLIGNGLTDPLTQYNYYEPMACGEGGEPSVLPSEECSAMEDSLERCLGLIESCYDSQSVWSCVPATIYCNNAQLAPYQRTGRNVYDIRKDCEGGNLCYPTLQDIDDYLNQDYVKEAVGAEVDHYESCNFDINRNFLFAGDWMKPYHTAVTDLLNQDLPILVYAGDKDFICNWLGNKAWTDVLPWKYDEEFASQKVRNWTASITDEVAGEVKSYKHFTYLRVFNGGHMVPFDVPENALSMVNEWIHGGFSL
notes: as for B1
On to B2, for which, in data set [5], the Michaelis constant (Km) was 170 µM, the catalytic constant (kcat) was determined as 135 s⁻¹ and the catalytic efficiency (kcat/Km) was 800000 M⁻¹ s⁻¹.
